Measurements taken from PMC4797294.

Biological target: T1, pVIc-TMR (UniProt P03274 240-250)
T1 chain: GVQSLKRRRCF
Assay: fluorescence polarization

B1: 30 bp dsDNA (dsDNA)
DNA 1: GACGACTAGGACGACGACGAGGATGACGAC
DNA 2: GTCGTCATCCTCGTCGTCGTCCTAGTCGTC
- Kd: 262 ± 88 nM
